According to PMC8631645, “Avidity observed between a bivalent inhibitor and an enzyme monomer with a single active site” (PLoS ONE, 2021):

Key:
mesotrypsin = biological target: T1, mesotrypsin (human, UniProt P35030 81-304); experiment: enzyme inhibition kinetics; mesotrypsin 0.25 nM, Z-GPR-pNA 5-250 uM, APPI monomer 0-400 nM or dimer inhibitor units 0-96 nM, 37 C, 100 mM Tris, 1 mM CaCl2, pH 8.0; global fit to the classic competitive inhibition equation; for the dimer an apparent constant of a single inhibitory unit; details: both partners purified
T1 construct: also called recombinant human mesotrypsin
T1 sequence (looked up): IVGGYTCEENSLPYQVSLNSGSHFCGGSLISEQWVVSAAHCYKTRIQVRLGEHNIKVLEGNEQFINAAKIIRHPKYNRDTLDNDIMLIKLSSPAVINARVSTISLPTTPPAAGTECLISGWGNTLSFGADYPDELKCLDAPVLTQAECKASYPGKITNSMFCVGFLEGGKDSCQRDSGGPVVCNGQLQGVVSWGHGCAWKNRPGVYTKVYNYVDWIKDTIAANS

bovine trypsin = bovine trypsin (bovine); experiment: enzyme activity titration; pre-titrated bovine trypsin (9 uL, 30 uM) mixed with six dilutions of APPI monomer or dimer; residual activity on 100 uM L-BAPA, 100 mM Tris, 5 mM CaCl2, pH 8.0, 37 C; compared with concentration by absorbance at 280 nm; details: both partners purified

Ki (mesotrypsin): 0.0361 µM
stoichiometry N (bovine trypsin): 2 trypsin per APPI dimer
B1: dimeric amyloid precursor protein inhibitor (APPI homodimer, two APPI units in tandem joined by a GGGGSx3 linker) (other)
chain: EVCSEQAETGPCRAMISRWYFDVTEGKCAPFFYGGCGGNRNNFDTEEYCMAVCGSAMGGGGSGGGGSGGGGSEVCSEQAETGPCRAMISRWYFDVTEGKCAPFFYGGCGGNRNNFDTEEYCMAVCGSAM
modifications: three disulfides per Kunitz unit. Limits from the printed primers (text says 3L33 residues 4-55 = 290-341). GGGGSx3 linker kept between units. Possible restriction-site residues at the junction and …
